Source: the supplement of paper PMC12667976
± gives the standard error.

B1: library; numbered along this chain (parent)
chain: MATDAALRRLLRLHRTEIAVAVDSAFPLLHALADHDVVPEDKFQETLHLKEKEGCPQAFHALLSWLLTQDSTAILDFWRVLFKDYNLERYGRLQPILDSFPKDVDLSQPRKGRKPPAVPKALVPPPRLPTKRKASEEARAAAPAALTPRGTASPGSQLKAKPPKKPESSAEQQRLPLGNGIQTMSASVQRAVAMSSGDVPGARGAVEGILIQQVFESGGSKKCIQVGGEFYTPSKFEDSGSGKNKARSSSGPKPLVRAKGAQGAAPGGGEARLGQQGSVPAPLALPSDPQLHQKNEDECAVCRDGGELICCDGCPRAFHLACLSPPLREIPSGTWRCSSCLQATVQEVQPRAEEPRPQEPPVETPLPPGLRSAGEEVRGPPGEPLAGMDTTLVYKHLPAPPSAAPLPGLDSSALHPLLCVGPEGQQNLAPGARCGVCGDGTDVLRCTHCAAAFHWRCHFPAGTSRPGTGLRCRSCSGDVTPAPVEGVLAPSPARLAPGPAKDDTASHEPALHRDDLESLLSEHTFDGILQWAIQSMARPAAPFPS

Variants of: B1
Assay: AIRE transcriptional activation functional score (insulin promoter-GFP; nonsense median 0, synonymous median 1) (normalised score); higher = higher AIRE activity (more reporter activation)
Conditions: with insulin promoter-GFP reporter in HEK293
Method: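 Deep mutational scan of full-length human AIRE (codon-optimized cDNA, DT-POPCode NNN libraries over three regions) integrated at a Bxb1 landing pad in HEK293 cells carrying an insulin core promoter-GFP reporter at a Flp-In site. Cells were sorted for the top 10% GFP about 14 days after transfection. Variant frequency log-ratios (select vs non-select, TileSeq) were rescaled so that the nonsense median is 0 and the synonymous median is 1, then averaged over biological replicates.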

| Variant | AIRE transcriptional activation functional score |
| --- | --- |
| R79G | 0.275 ± 0.28 |
| R79H | 1.25 ± 0.16 |
| R79P | -0.266 ± 0.58 |
| R79A | 0.0777 ± 0.15 |
| R79C | 0.278 ± 0.2 |
| R79L | 0.11 ± 0.67 |
| R79T | -2.81 ± 0.52 |
| R79F | 0.705 ± 0.11 |
| R79I | 0.217 ± 0.23 |
| R79S | 0.372 ± 0.52 |
| R79M | -0.695 ± 0.077 |
| R79W | 0.0958 ± 0.034 |
| R79D | 0.209 ± 0.067 |
| R79Q | 0.112 ± 0.35 |
| R79V | 0.88 ± 0.41 |
| F82K | -0.492 ± 0.079 |
| F82C | -0.279 ± 0.34 |
| F82H | 0.0485 ± 0.13 |
| F82T | -0.086 ± 0.55 |
| F82M | -1.23 ± 0.75 |
| F82Y | 0.443 ± 0.26 |
| F82N | -4.23 ± 0.85 |
| F82Q | 0.378 ± 0.069 |
| F82G | 0.401 ± 0.45 |

| Variant | AIRE transcriptional activation functional score |
| --- | --- |
| F82S | 0.375 ± 0.67 |
| F82L | 0.0208 ± 0.29 |
| F82W | -0.557 ± 0.12 |
| F82I | 0.234 ± 0.36 |
| F82P | -0.365 ± 0.77 |
| F82A | -0.904 ± 0.4 |
| F82R | 0.341 ± 1.1 |
| F82V | 0.0231 ± 0.15 |
| F82D | 0.364 ± 0.38 |
| W78M | 0.308 ± 0.063 |
| W78A | 0.0338 ± 0.39 |
| W78C | 0.126 ± 0.12 |
| W78V | -0.0156 ± 0.41 |
| W78G | 0.214 ± 0.16 |
| W78L | 0.134 ± 0.35 |
| W78N | -0.791 ± 0.45 |
| W78E | 0.582 ± 0.16 |
| W78I | 0.15 ± 0.38 |
| W78T | 0.642 ± 0.21 |
| W78D | 0.137 ± 0.41 |
| W78F | 0.409 ± 0.39 |
| W78H | 0.363 ± 0.52 |
| W78K | 0.0822 ± 0.16 |
| W78Q | -2.24 ± 0.88 |

| Variant | AIRE transcriptional activation functional score |
| --- | --- |
| W78S | 0.301 ± 0.46 |
| W78P | 0.554 ± 0.3 |
| W78Y | 0.346 ± 0.1 |
| W78R | -0.0677 ± 0.38 |
| L87C | 0.115 ± 0.26 |
| L87A | 0.0518 ± 0.52 |
| K83L | 0.753 ± 0.27 |
| K83S | 0.122 ± 0.21 |
| K83M | -0.821 ± 0.059 |
| K83W | 0.152 ± 0.05 |
| K83Q | 0.546 ± 1 |
| K83V | -0.175 ± 0.24 |
| K83I | 0.0909 ± 0.16 |
| K83A | 0.537 ± 0.43 |
| K83H | 0.338 ± 0.23 |
| K83E | -0.351 ± 0.23 |
| K83C | 0.194 ± 0.21 |
| K83T | 0.432 ± 0.38 |
| K83P | -0.158 ± 0.87 |
| K83G | -0.0227 ± 0.29 |
| K83F | 0.177 ± 0.099 |
| K83R | 0.00955 ± 0.44 |
| K83D | -0.0712 ± 0.38 |
| K83N | 0.0819 ± 0.18 |

| Variant | AIRE transcriptional activation functional score |
| --- | --- |
| K83Y | -0.194 ± 0.5 |
| Y85I | 0.794 ± 0.18 |
| Y85E | -2.83 ± 0.47 |
| Y85F | 0.722 ± 0.33 |
| Y85S | 0.113 ± 0.28 |
| Y85N | -0.66 ± 0.27 |
| Y85D | 0.0634 ± 0.032 |
| Y85H | -0.286 ± 0.36 |
| Y85W | -1.85 ± 0.26 |
| Y85Q | -2.11 ± 0.086 |
| Y85R | -0.639 ± 0.52 |
| Y85G | -1.95 ± 0.17 |
| Y85V | 0.302 ± 0.21 |
| Y85L | 0.211 ± 0.76 |
| Y85P | -0.276 ± 0.62 |
| Y85C | 0.367 ± 0.2 |
| Y85T | 0.418 ± 0.14 |
| Y85K | -1.13 ± 0.22 |
| N86P | 0.153 ± 0.6 |
| N86S | 0.134 ± 0.59 |
| N86E | -0.323 ± 0.33 |
| N86R | -0.161 ± 0.52 |
| N86T | -0.124 ± 0.51 |
| N86Y | 0.0334 ± 0.18 |

| Variant | AIRE transcriptional activation functional score |
| --- | --- |
| N86Q | -0.241 ± 0.33 |
| N86A | -0.248 ± 0.42 |
| N86V | 1.33 ± 0.45 |
| N86I | 0.0139 ± 0.67 |
| N86F | -0.398 ± 0.45 |
| N86L | 0.306 ± 0.53 |
| N86M | 1.34 ± 0.48 |
| N86G | -0.0879 ± 0.18 |
| N86W | -0.448 ± 0.18 |
| N86K | -0.0593 ± 0.28 |
| N86D | -1.05 ± 0.28 |
| N86C | 0.345 ± 0.37 |
| N86H | -0.275 ± 0.44 |
| F77Q | -0.44 ± 0.62 |
| F77V | 0.192 ± 0.17 |
| F77Y | 0.195 ± 0.18 |
| F77W | -0.255 ± 0.2 |
| F77T | 0.0954 ± 0.74 |
| F77R | -0.0859 ± 0.37 |
| F77S | -0.182 ± 0.39 |
| F77P | -0.416 ± 0.52 |
| L81T | 0.331 ± 0.22 |
| L81N | 1.87 ± 0.082 |
| L81A | -0.165 ± 0.28 |

| Variant | AIRE transcriptional activation functional score |
| --- | --- |
| L81P | 0.303 ± 0.071 |
| L81D | 0.439 ± 0.029 |
| L81C | 0.822 ± 0.12 |
| L81R | -0.201 ± 0.48 |
| L81W | 0.0861 ± 0.077 |
| L81V | -0.437 ± 0.64 |
| L81M | -0.00473 ± 0.12 |
| L81H | -1.4 ± 0.2 |
| L81G | -0.169 ± 0.42 |
| L81I | 0.143 ± 1.1 |
| L81S | 0.123 ± 0.79 |
| L81Y | 0.0857 ± 0.077 |
| L81K | -1.81 ± 0.23 |
| L81F | 0.331 ± 0.34 |
| L81E | 0.209 ± 0.3 |
| V80I | 1.57 ± 0.32 |
| V80M | 0.629 ± 0.25 |
| V80N | -6.41 ± 1 |
| V80F | 0.527 ± 0.47 |
| V80E | -0.149 ± 0.14 |
| V80S | -0.226 ± 0.18 |
| V80R | -0.324 ± 0.6 |
| V80G | 0.653 ± 0.33 |
| V80C | -0.468 ± 0.21 |

| Variant | AIRE transcriptional activation functional score |
| --- | --- |
| V80A | -0.0867 ± 0.36 |
| V80Y | 0.606 ± 0.068 |
| V80H | -0.971 ± 1.8 |
| V80L | 0.613 ± 1.2 |
| D84Y | 0.473 ± 0.34 |
| D84T | 0.74 ± 0.53 |
| D84S | 1.11 ± 0.31 |
| D84K | -0.063 ± 1.1 |
| D84C | -0.0537 ± 0.25 |
| D84W | 1.68 ± 0.046 |
| D84V | -0.00793 ± 0.2 |
| D84A | 0.125 ± 0.24 |
| D84G | 0.841 ± 0.47 |
| D84E | 0.774 ± 0.23 |
| D84M | -0.309 ± 0.14 |
| D84N | 0.535 ± 0.19 |
| D84L | -0.0937 ± 0.33 |
| D84R | 0.794 ± 0.32 |
| D84H | 0.341 ± 0.18 |
| D84Q | 0.343 ± 0.5 |
| D84F | -0.14 ± 0.21 |
| D84P | 0.652 ± 0.47 |
| D84I | -0.4 ± 0.27 |
